The values that follow come from publication doi:10.1101/2022.08.03.502284 (bioRxiv, 2022).

This data set deals with the molecule itself. The data set can be described thus: ONE expansion microscopy of the purified protein.

B1: full-length human GABAA receptor β3 subunit homopentamer (receptor)
chain: QSVNDPGNMSFVKETVDKLLKGYDIRLRPDFGGPPVCVGMNIDIASIDMVSEVNMDYTLTMYFQQYWRDKRLAYSGIPLNLTLDNRVADQLWVPDTYFLNDKKSFVHGVTVKNRMIRLHPDGTVLYGLRITTTAACMMDLRRYPLDEQNCTLEIESYGYTTDDIEFYWRGGDKAVTGVERIELPQFSIVEHRLVSRNVVFATGAYPRLSLSFRLKRNIGYFILQTYMPSILITILSWVSFWINYDASAARVALGITTVLTMTTINTHLRETLPKIPYVKAIDMYLMGCFVFVFLALLEYAFVNYIFFGRGPQRQKKLAEKTAKAKNDRSKSESNRVDAHGNILLTSLEVHNEMNEVSGGIGDTRNSAISFDNSGIQYRKQSMPREGHGRFLGDRSLPHKKTHLRRRSSQLKIKIPDLTDVNAIDRWSRIVFPFTFSLFNLVYWLYYVN
Take B1: the binding result is listed as “binds”.
